Reference: paper PMC4954698

Key:
[1] = target: Glutamate decarboxylase (GAD) from Escherichia coli K12, produced in media supplemented with pyridoxine hydrochloride (GAD-V) (E. coli str. K12 substr. MG1655) (UniProt P69910); experiment: SEC; Superdex 200 10/300GL, 20 mM citric acid-Na2HPO4 buffer pH 6.5 with 0.15 mM PLP, 0.4 mL/min, calibrated with molecular weight standards; native molecular weight about 324 kDa
[2] = target: Glutamate decarboxylase (GAD) from Escherichia coli K12, produced without pyridoxine hydrochloride supplementation (GAD-C) (E. coli str. K12 substr. MG1655) (UniProt P69910); experiment: as above

stoichiometry N [1]	stoichiometry N [2]	Substance
6		Glutamate decarboxylase (GAD) from Escherichia coli K12, produced in media supplemented with pyridoxine hydrochloride (GAD-V) (from UniProt P69910 1-466) (enzyme)
	6	Glutamate decarboxylase (GAD) from Escherichia coli K12, produced without pyridoxine hydrochloride supplementation (GAD-C) (from UniProt P69910 1-466) (enzyme)
